Consider six molecules from patent US20140296131A1 (Novo Nordisk, published 2014).

Where no end group is shown, it is not given here. [ ]: non-standard residue; d: D form. Aib = CC(C)(N)C(=O)O A value given as a limit tells only on which side of the number the result lay.

For assay [1], the target named is isolated N-terminal extracellular domain of the GLP-1 receptor (nGLP-1R) (UniProt P43220). In words: SPA competition: displacement of 125I-Exendin-4(9-39) from nGLP-1R.
The target of assay [2] is T1, human GLP-1 receptor (human, UniProt P43220 24-463). In words: cell-based or functional assay.
Assay [3] deals with T1, human GLP-1 receptor. Kind of assay: SPA competition: displacement of 125I-GLP-1 from BHK tk-ts13 membranes with the human GLP-1 receptor. On the procedure:
Test compounds/peptides, membranes, SPA-particles and [¹²⁵I] are diluted in assay buffer. 25 ul (micro liter) of test compounds/peptides are added to Optiplate. Buffer is added (50 ul). Add 5-10 ug protein/sample (50 ul) corresponding to 0.1-0.2 mg protein/ml (to be preferably optimised for each membrane preparation). Add SPA-particles (Wheatgerm agglutinin SPA beads) RPNQ 0001) 0.5 mg/well (50 ul). […] The plates are sealed with PlateSealer. Incubate for 120 minutes at 30° C. while shaking. The plates are centrifuged (1500 rpm, 10 min) and counted in Topcounter.

Assay [4] has as its target T2, isolated N-terminal extracellular domain of the GLP-1 receptor (nGLP-1R) (UniProt P43220 24-145, limits assumed, biotinylated with BNHS, immobilized on streptavidin-coated SPA beads).
T2 construct: extracellular domain; also called N-terminal GLP-1 receptor
Kind of assay: SPA competition: displacement of 125I-Exendin-4(9-39) from biotinylated nGLP-1R on streptavidin SPA beads. On the procedure:
The nGLP1R in 0.1M NaHCO₃ was biotinylated using 75 μg BNHS (Sigma H1759) to 1 mg protein. The biotinylated nGLP1R was subsequently dialyzed against PBS. All reagents and derivatives were diluted in PBS with 0.05% v/v Tween 20. […] The plates were incubated on a shaker at RT for 3 hours. The SPA particles were spun down by centrifugation for 10 min at 1500 rpm and the plates were counted in a TopCount-NXT (PerkinElmer).

As for liraglutide (peptide), the concentration for half-maximal inhibition (IC50) in assay [1] was 1500 nM.

B1: [Aib8, Lys20, Glu22, Val25, Arg26, Glu30] GLP-1 (7-33) Amide (peptide)
peptide: H[Aib]EGTFTSDVSSYKEEQAVREFIEWLV-NH2
modifications: N-terminus assumed
SMILES: CC[C@H](C)[C@H](NC(=O)[C@H](Cc1ccccc1)NC(=O)[C@H](CCC(=O)O)NC(=O)[C@H](CCCNC(=N)N)NC(=O)[C@@H](NC(=O)[C@H](C)NC(=O)[C@H](CCC(N)=O)NC(=O)[C@H](CCC(=O)O)NC(=O)[C@H](CCC(=O)O)NC(=O)[C@H](CCCCN)NC(=O)[C@H](Cc1ccc(O)cc1)NC(=O)[C@H](CO)NC(=O)[C@H](CO)NC(=O)[C@@H](NC(=O)[C@H](CC(=O)O)NC(=O)[C@H](CO)NC(=O)[C@@H](NC(=O)[C@H](Cc1ccccc1)NC(=O)[C@@H](NC(=O)CNC(=O)[C@H](CCC(=O)O)NC(=O)C(C)(C)NC(=O)[C@@H](N)Cc1c[nH]cn1)[C@@H](C)O)[C@@H](C)O)C(C)C)C(C)C)C(=O)N[C@@H](CCC(=O)O)C(=O)N[C@@H](Cc1c[nH]c2ccccc12)C(=O)N[C@@H](CC(C)C)C(=O)N[C@H](C(N)=O)C(C)C
Take B1: the “EC50 (potency, stimulation of cAMP formation)” value (from here on “EC50”) in the assay with human GLP-1 receptor [2] was less than 0.3 nM.

B2: [Glu22, Arg26]GLP-1(7-33)peptide (peptide)
peptide: HAEGTFTSDVSSYLEEQAAREFIAWLV-OH
Turning to B2, the “EC50” value in the assay with human GLP-1 receptor [2] was less than 0.3 nM.

B3: [Glu22, Arg26]GLP-1 (7-33) Amide (peptide)
peptide: HAEGTFTSDVSSYLEEQAAREFIAWLV-NH2
For the molecule B3, the “EC50” value with human GLP-1 receptor [2] is less than 0.3 nM.

B4: truncated natural, human GLP-1(7-33) (peptide)
peptide: HAEGTFTSDVSSYLEGQAAKEFIAWLV
modifications: ends and bridges not checked
notes: also called truncated natural GLP-1; truncated natural GLP-1(7-3)) peptide
On to B4, for which the “EC50” value in the assay with human GLP-1 receptor [2] is 11.3 nM. Moreover, the results for the half-inhibitory concentration (IC50) (with human GLP-1 receptor [3]; in assay [4]) were 241 nM and 886 nM, respectively.

B5: [Glu22, Val25, Arg26] GLP-1 (7-33)amide (peptide)
peptide: HAEGTFTSDVSSYLEEQAVREFIAWLV-NH2
In the case of B5, the “EC50” value in the assay with human GLP-1 receptor [2] is less than 0.3 nM.
